Experiment [1] deals with T1, human αvβ6 on 293F:huβ6 cells (human, UniProt P06756 31-1048; P18564 22-788).
T1 chain 1: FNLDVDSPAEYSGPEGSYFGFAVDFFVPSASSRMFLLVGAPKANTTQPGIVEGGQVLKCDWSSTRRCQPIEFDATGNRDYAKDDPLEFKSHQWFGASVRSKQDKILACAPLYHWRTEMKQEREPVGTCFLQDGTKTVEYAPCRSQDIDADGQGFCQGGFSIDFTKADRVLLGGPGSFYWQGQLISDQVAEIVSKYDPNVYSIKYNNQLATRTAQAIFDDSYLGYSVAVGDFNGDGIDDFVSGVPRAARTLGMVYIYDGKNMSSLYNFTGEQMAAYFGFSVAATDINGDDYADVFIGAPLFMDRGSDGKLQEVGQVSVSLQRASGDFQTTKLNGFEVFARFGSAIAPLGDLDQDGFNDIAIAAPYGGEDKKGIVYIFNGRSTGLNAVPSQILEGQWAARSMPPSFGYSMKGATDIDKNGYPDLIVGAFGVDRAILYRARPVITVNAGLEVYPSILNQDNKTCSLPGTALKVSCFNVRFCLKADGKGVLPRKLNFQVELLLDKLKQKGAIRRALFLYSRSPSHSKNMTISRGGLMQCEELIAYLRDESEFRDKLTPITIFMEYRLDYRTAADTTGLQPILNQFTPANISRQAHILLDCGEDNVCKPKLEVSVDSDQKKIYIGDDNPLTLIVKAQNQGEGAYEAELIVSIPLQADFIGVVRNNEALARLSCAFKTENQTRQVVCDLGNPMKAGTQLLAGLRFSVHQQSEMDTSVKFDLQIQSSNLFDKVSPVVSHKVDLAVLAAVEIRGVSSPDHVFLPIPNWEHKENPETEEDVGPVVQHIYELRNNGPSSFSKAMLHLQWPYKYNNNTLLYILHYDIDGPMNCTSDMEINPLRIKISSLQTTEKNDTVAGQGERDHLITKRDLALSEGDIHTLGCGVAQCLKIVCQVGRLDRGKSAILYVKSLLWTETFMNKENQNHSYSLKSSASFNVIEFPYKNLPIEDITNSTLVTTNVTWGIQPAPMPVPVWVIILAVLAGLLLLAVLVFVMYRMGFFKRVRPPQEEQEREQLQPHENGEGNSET
T1 chain 2: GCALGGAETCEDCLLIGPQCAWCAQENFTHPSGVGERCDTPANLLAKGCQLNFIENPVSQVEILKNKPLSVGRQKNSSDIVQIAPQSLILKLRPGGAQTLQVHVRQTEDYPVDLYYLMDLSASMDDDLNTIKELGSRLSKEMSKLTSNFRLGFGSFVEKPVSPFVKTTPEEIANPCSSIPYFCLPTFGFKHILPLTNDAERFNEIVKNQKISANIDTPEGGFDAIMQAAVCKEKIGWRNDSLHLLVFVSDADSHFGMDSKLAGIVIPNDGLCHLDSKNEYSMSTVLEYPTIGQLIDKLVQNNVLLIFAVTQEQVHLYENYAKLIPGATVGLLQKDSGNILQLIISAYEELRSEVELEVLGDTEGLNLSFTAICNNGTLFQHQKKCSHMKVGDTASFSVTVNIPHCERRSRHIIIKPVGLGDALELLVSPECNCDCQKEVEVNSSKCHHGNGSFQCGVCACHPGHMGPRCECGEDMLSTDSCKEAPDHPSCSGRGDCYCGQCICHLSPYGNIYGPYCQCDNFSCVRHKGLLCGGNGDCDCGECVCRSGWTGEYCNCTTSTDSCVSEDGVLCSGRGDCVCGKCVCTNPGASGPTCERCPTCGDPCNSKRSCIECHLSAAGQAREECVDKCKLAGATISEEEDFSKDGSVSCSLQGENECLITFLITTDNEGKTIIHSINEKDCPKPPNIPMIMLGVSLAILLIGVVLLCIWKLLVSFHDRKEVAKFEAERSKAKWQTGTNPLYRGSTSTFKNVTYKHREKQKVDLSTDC
As to the kind of experiment: saturation binding on 293F cells; AF647-labeled.

Experiment [2] has as its target T2, cyno αvβ6 on 293F:cynoβ6 cells (human;Macaca fascicularis, UniProt P06756 31-1048; A0A2K5TZ36 22-787).
T2 chain 1: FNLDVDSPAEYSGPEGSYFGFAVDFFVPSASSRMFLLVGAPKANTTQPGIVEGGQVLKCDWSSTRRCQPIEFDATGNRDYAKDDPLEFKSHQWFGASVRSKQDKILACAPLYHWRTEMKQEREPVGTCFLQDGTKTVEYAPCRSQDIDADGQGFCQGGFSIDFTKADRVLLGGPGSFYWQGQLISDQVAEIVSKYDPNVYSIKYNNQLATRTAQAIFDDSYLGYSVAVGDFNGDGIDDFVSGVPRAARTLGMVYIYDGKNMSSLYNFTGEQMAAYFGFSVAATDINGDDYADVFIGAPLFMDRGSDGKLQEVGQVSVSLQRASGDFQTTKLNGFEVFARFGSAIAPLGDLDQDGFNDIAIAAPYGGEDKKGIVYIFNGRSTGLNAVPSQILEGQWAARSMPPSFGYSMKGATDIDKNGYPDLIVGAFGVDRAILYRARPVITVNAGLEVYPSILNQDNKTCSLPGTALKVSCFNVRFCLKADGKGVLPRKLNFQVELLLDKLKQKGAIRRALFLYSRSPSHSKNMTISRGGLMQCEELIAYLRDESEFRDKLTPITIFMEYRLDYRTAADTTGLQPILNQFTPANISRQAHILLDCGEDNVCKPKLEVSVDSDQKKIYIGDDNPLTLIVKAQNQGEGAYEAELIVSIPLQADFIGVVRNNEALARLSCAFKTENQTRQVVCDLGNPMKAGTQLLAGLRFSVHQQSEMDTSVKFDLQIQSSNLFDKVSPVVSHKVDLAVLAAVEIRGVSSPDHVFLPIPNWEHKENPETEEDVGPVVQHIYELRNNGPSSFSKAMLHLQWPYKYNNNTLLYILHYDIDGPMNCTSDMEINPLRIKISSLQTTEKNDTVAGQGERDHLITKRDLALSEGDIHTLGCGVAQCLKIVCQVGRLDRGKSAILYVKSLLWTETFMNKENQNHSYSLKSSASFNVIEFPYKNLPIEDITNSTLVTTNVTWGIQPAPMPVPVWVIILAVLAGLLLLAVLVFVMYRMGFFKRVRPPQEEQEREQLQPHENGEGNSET
T2 chain 2: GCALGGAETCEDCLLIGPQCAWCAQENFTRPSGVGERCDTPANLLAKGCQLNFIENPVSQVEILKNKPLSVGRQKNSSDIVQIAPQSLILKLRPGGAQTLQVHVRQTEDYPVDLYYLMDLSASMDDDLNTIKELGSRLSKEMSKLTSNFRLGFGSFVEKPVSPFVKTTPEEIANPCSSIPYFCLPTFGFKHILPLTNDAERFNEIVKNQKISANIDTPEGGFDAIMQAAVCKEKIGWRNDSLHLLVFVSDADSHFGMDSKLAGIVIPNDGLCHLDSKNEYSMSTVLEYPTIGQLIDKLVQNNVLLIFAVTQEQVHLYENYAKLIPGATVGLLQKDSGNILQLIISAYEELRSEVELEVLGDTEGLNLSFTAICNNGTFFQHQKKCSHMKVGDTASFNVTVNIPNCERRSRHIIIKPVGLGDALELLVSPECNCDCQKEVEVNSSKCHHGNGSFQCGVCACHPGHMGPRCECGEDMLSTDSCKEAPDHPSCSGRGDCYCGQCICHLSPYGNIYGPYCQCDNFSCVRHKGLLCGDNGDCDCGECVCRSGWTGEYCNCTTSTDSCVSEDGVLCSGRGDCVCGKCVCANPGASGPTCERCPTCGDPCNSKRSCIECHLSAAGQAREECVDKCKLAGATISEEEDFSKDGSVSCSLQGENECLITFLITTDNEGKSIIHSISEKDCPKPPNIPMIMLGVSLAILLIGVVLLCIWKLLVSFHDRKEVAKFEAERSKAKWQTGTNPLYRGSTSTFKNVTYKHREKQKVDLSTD
Briefly: saturation binding on 293F cells; AF647-labeled.

Experiment [3] deals with T1, human αvβ6 on 293F:huβ6 cells. Briefly: competition binding on 293F cells; 2nM m2A2-AF647 competitor.
The target is the same in experiment [4]. As to the kind of experiment: saturation binding on 293F cells; AF647-labeled.
In experiment [5] the target is T2, cyno αvβ6 on 293F:cynoβ6 cells. As to the kind of experiment: saturation binding on 293F cells; AF647-labeled.
Experiment [6] deals with T1, human αvβ6 on 293F:huβ6 cells. As to the kind of experiment: competition binding on 293F cells; 2nM m2A2-AF647 competitor.
The target in experiment [7] is T3, αvβ5 on the αvβ5-positive parental line (293F:vector) (human, UniProt P06756 31-1048; P18084 24-799).
T3 construct: whole, on cells; HEK293F cells transfected with the empty vector, used as negative control; also called HEK293F:vector
T3 sequence (P18084 24-799, one chain of several): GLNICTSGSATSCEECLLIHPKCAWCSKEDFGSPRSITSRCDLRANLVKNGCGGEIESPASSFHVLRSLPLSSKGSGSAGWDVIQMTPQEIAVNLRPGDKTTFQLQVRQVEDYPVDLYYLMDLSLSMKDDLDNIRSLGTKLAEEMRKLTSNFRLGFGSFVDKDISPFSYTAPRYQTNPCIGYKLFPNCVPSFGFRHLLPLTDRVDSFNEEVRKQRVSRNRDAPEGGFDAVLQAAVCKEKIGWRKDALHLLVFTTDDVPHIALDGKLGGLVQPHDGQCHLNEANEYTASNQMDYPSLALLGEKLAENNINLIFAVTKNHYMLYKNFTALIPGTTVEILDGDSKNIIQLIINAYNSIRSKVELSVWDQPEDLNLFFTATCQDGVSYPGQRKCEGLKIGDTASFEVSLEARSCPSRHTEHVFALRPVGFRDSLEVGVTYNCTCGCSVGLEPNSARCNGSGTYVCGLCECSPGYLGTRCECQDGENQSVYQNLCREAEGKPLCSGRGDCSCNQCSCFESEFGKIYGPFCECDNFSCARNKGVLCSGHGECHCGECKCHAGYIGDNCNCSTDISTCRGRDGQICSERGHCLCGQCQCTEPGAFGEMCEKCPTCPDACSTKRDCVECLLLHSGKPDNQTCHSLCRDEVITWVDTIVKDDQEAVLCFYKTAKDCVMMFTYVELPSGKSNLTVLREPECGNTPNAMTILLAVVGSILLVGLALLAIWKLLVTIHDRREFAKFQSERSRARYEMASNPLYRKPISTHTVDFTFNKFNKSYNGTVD
As to the kind of experiment: FMAT and flow cytometry binding studies on cells.

Experiment [8] concerns the target T4, human αvβ6 on 293F:huβ6 cells (human, UniProt P06756 31-1048; P18564 22-788).
T4 construct: whole, on cells; also called HEK293F:huβ6
As to the kind of experiment: FMAT and flow cytometry binding studies on cells.

The target of experiment [9] is T1, human αvβ6 on 293F:huβ6 cells. As to the kind of experiment: competition binding on 293F cells; 2nM m2A2-AF647 competitor.
Experiment [10] shares this target. Briefly: competition binding on 293F cells.
In experiment [11] the target is T2, cyno αvβ6 on 293F:cynoβ6 cells. Briefly: competition binding on 293F cells.
In experiment [12] the target is T4, human αvβ6 on 293F:huβ6 cells. As to the kind of experiment: competition binding by flow cytometry on 293F:huβ6 cells. As for the experimental part: 0.1×10⁶ antigen expressing cells were aliquoted in each well of a 96-well v-bottom plate on ice. The cells were incubated for 1 hour with 2 nM AlexaFluor-647 labeled humanized 2A2 HCLG and increasing concentrations (from 4 pM-1 uM) of unlabeled humanized 2A2 HCLG antibody and h2A2-Mdpr-PEG(12)-gluc-MMAE(8) in buffer (Tris-buffered saline, 2% fetal bovine serum, 0.5 mM MnCl₂, 0.02% NaN₃). Cells were pelleted and washed 3 times with TBS/FBS. The cells were pelleted and resuspended in 125 uL of TBS/FBS. Fluorescent signal of binding was detected using a Becton Dickinson Biosciences LSR II (San Jose, CA). Percent of saturated fluorescent signal was used to determine percent labeled humanized 2A2 antibody bound to cells and to subsequently extrapolate the EC50 by fitting the data to a sigmoidal dose-response curve with variable slope using GraphPad Software (LaJolla, CA).

B1: murine monoclonal antibody 2A2 (antibody, V domains shown)
VH: EFQLQQSGPELVKPGASVKISCKASGYSFTDYNVNWVKQSNGKSLEWIGVINPKYGTTRYNQKFKGKATLTVDKPSSTAYMQLNSLTSEDSAVYYCTRGLNAWDYWGQGASVTVSS
VL: DIQMTQSPASLSASVGETVTITCGASENIYGALNWYQRKQGKSPQLLIYGATNLADGMSSRFSGSGSGRQYSFKISSLHPDDVATYYCQNVLTTPYTFGGGTKLEIK
notes: Mouse hybridoma IgG; also called m2A2; mouse 2A2
The term EC50 denotes the concentration needed to bring the measured effect to its halfway point. A higher EC50 goes with lower potency in that assay. As for B1, the EC50 in [1] was 0.5 nM; in experiment [2] it was 0.4 nM; in experiment [3], 2 nM; in experiment [4], 0.5 nM; in experiment [5] it was 0.4 nM; in [6] it was 3 nM. In experiment [9], this molecule had an EC50 of 3 nM. The binding result is listed as “no binding” in [7] and “binds” in experiment [8].

B2: h2A2-Mdpr-PEG(12)-gluc-MMAE(8) (antibody, human IgG1, kappa, V domains shown)
VH: QFQLVQSGAEVKKPGASVKVSCKASGYSFTDYNVNWVRQAPGQGLEWIGVINPKYGTTRYNQKFKGRATLTVDKSTSTAYMELSSLRSEDTAVYYCTRGLNAWDYWGQGTLVTVSS
VL: DIQMTQSPSSLSASVGDRVTITCGASENIYGALNWYQQKPGKAPKLLIYGATNLEDGVPSRFSGSGSGRDYTFTISSLQPEDIATYYCQNVLTTPYTFGQGTKLEIKR
modifications: SGD-5088 drug-linker (Mdpr-PEG(12)-gluc-MMAE) on cysteines of the reduced interchain disulfides, eight copies of drug-linker per antibody
notes: also called ADC prepared with h2A2 HCLG and the SGD-5088 drug-linker; HCLG ADC
For B2, the EC50 in [10] and in [11] was 4 nM each time. Also, in experiment [12], the binding result is given as “binds”.
